Data published in US20080098490A1.

Assays:
[1] = target: IL-8 receptors on human neutrophils; assay: 125I-IL-8 binding to human neutrophils, no antibody
[2] = target: TNF-α receptors on U937 cells; assay: 125I-TNF-α binding to U937 cells, no antibody
[3] = target: EGFR expressed on A431 cells or SW948 cells (human) (UniProt P00533); assay: inhibition of [125I]EGF binding to A431 cells (receptor binding assay, % specific bound); blocked ligand: EGF

human IL-8 (from UniProt P10145 28-99) (ligand)
background binding in the absence of antibody [1]: 2660 cpm

human tumor necrosis factor-α (from UniProt P01375 77-233) (ligand)
background binding in the absence of antibody [2]: 4010 cpm

mouse anti-human EGFR antibody 225 (Calbiochem)
IC50 (read off the curve) [3]: 20 nM
